These binders were tested against HLA-A*0201 (human, UniProt A*02:01) (assay: REVEAL MHC binding assay (ProImmune)).

Binder	% Pass/fail control
NVAELLHQV [Peptide ID 101 NVAELLHQV (ZAP-70)]	200 % of pass/fail control
WLSAAPTSL [Peptide ID 102 WLSAAPTSL (CD33)]	207 % of pass/fail control
ELSEDSSNV [Peptide ID 103 ELSEDSSNV (CD18)]	139 % of pass/fail control
LMSFFILLL [Peptide ID 104 LMSFFILLL (CD53)]	161 % of pass/fail control

From patent publication US20110142842A1 (MEDINNOVA, published 2011)
